{
  "source": "patent US20120114590A1",
  "about": "(priority 2005, published 2012)",
  "molecules": {"B1": {"name": "IL-29: human IL-29 cytokine polypeptide (zcyto21), e.g. SEQ ID NO:20 (protein, listed as Homo sapiens)", "chain": "MAAAWTVVLVTLVLGLAVAGPVPTSKPTTTGKGCHIGRFKSLSPQELASFKKARDALEESLKLKNWSCSSPVFPGNWDLRLLQVRERPVALEAELALTLKVLEAAAGPALEDVLDQPLHTLHHILSQLQACIQPQPTAGPRPRGRLHHWLHRLQEAPKKESAGCLEASVTFNLFRLLTRDLKYVADGNLCLRTSTHPEST", "modifications": "SIGNAL (1)...(19)"}},
  "key": {"West Nile virus": {"test_system": "West Nile virus", "assay_type": "cell-based", "settings": "Vero"}, "[1]": {"test_system": "Influenza (type A [H3N2])", "assay_type": "cell-based", "settings": "Vero"}, "[2]": {"test_system": "human marrow mononuclear cells"}, "HHV-8": {"test_system": "HHV-8", "assay": "HHV-8 replication in BCBL-1 cells (TaqMan PCR extracellular HHV-8 DNA; dye uptake TC50)", "assay_type": "cell-based, human herpesvirus-8", "procedure": "The therapeutic index (TI) is calculated as TC50/IC50."}, "adenoviral vector AdGFP": {"test_system": "adenoviral vector AdGFP", "assay": "Adenoviral vector (AdGFP) liver pathology model in C57Bl/6 mice", "settings": "AdGFP-infected C57Bl/6 mice, 50 μg i.p., 7 doses"}, "[3]": {"test_system": "Venezuelan equine encephalitis virus", "assay_type": "cell-based", "settings": "Vero"}, "[4]": {"test_system": "Respiratory syncytial virus", "assay_type": "cell-based"}, "Parainfluenza virus": {"test_system": "Parainfluenza virus", "assay_type": "cell-based", "settings": "MA-104 cells, Neutral Red Assay"}, "[5]": {"test_system": "Influenza (type A [H3N2])", "assay_type": "cell-based", "settings": "Maden-Darby Canine Kidney cells, Neutral Red Assay"}, "[6]": {"test_system": "Influenza (type A [H3N2])", "assay_type": "cell-based", "settings": "Maden-Darby Canine Kidney"}, "Rhino 2 [7]": {"test_system": "Rhino 2", "assay_type": "cell-based, rhino virus", "settings": "Rhino 2, KB"}, "Pichinde virus [8]": {"test_system": "Pichinde virus", "assay_type": "cell-based"}, "Rhino 9": {"test_system": "Rhino 9", "assay_type": "cell-based, rhino virus", "settings": "Rhino 9, HeLa"}, "Vaccinia virus": {"test_system": "Vaccinia virus", "assay_type": "cell-based", "settings": "Vero"}, "[9]": {"test_system": "Influenza (type A [H3N2])", "assay_type": "cell-based", "settings": "Vero cells, Neutral Red Assay"}, "EMCV": {"test_system": "EMCV", "assay": "EMCV antiviral assay (MTT dye uptake) in HepG2 cells", "assay_type": "cell-based, encephalomyocarditis virus", "settings": "cytokine 24 hours before EMCV challenge"}, "Adenovirus": {"test_system": "Adenovirus", "assay_type": "cell-based"}, "[10]": {"test_system": "spleens of transgenic mice", "assay": "ISG expression in spleens of Eu-lck human IL-29 transgenic mice (real-time PCR)", "assay_type": "in vivo, mouse", "settings": "spleens of Eu-lck IL-29 transgenic mice; fold expression relative to HPRT; average of two mice", "procedure": "This promoter is active in T cells and B cells. Transgenic mice and their non-transgenic littermates (n=2/gp) were sacrificed at about 10 weeks of age. Spleens of mice were isolated. RNA was isolated from cell pellets using RNAEasy-kit® (Qiagen). RNA was treated with DNase to clean RNA of any contaminating DNA. cDNA was generated using Perkin-Elmer RT® mix. ISG gene induction was evaluated by real-time PCR using primers and probes (5′ FAM, 3′ NFQ) specific for mouse OAS, Pkr and Mx1. To obtain quantitative data, HPRT real-time PCR was duplexed with ISG PCR. Furthermore, a standard curve was obtained using known amounts of IFN stimulated mouse PBLs. All data are shown as expression relative to internal HPRT expression."}, "Rhino 2 [11]": {"test_system": "Rhino 2", "assay_type": "cell-based, rhino virus", "settings": "Rhino 2, KB cells, Neutral Red Assay"}, "Pichinde virus [12]": {"test_system": "Pichinde virus", "assay_type": "cell-based", "remark": "listed apart in the source"}},
  "note": "Read-outs that look alike come from different tables or passages of the source.",
  "data": [
    {"molecule": "B1", "values": [
      {"measurement": "EC50 Visual", "setting": "West Nile virus", "value": 0.032, "unit": "ng/mL"},
      {"measurement": "IC50 Visual", "setting": "West Nile virus; numerator of SI", "value": ">10", "unit": "µg/mL"},
      {"measurement": "EC50 Visual", "setting": "[1]", "value": ">10", "unit": "µg/mL"},
      {"measurement": "IC50 Visual", "setting": "[1]; numerator of SI", "value": ">10", "unit": "µg/mL"},
      {"measurement": "bone marrow cell expansion", "setting": "[2]; in the presence of IL-2 or IL-15", "value": "small inhibition"},
      {"measurement": "expansion of bone marrow cells", "setting": "[2]; in the presence of IL-3, IL-4, IL-5, IL-7, IL-10, IL-12, IL-21 or no added cytokine", "value": "no significant effect"},
      {"measurement": "TI (TC50/IC50)", "setting": "HHV-8", "value": "> 1.85"},
      {"measurement": "IC50 (extracellular HHV-8 DNA)", "setting": "HHV-8; six days", "value": 6.5, "unit": "µg/mL"},
      {"measurement": "liver histology: cellular changes versus PBS treatment group", "setting": "adenoviral vector AdGFP", "value": "less proliferation of sinusoidal cells, fewer mitotic figures and fewer changes in the hepatocytes"},
      {"measurement": "liver histology: liver and inflammation scores versus PBS-treated group", "setting": "adenoviral vector AdGFP", "value": "lower liver and inflammation scores"},
      {"measurement": "average serum AST", "setting": "adenoviral vector AdGFP; n=8", "value": 162, "unit": "U/L"},
      {"measurement": "serum ALT", "setting": "adenoviral vector AdGFP; n=8", "value": 184, "unit": "U/L"},
      {"measurement": "EC50 Visual", "setting": "[3]", "value": 0.012, "unit": "µg/mL"},
      {"measurement": "IC50 Visual", "setting": "[3]; numerator of SI", "value": ">10", "unit": "µg/mL"},
      {"measurement": "EC50 Visual", "setting": "[4]; MA-104", "value": ">10", "unit": "µg/mL"},
      {"measurement": "IC50 Visual", "setting": "[4]; MA-104, numerator of SI", "value": ">10", "unit": "µg/mL"},
      {"measurement": "EC50 NR", "setting": "Parainfluenza virus", "value": ">10", "unit": "µg/mL"},
      {"measurement": "IC50 NR", "setting": "Parainfluenza virus", "value": ">10", "unit": "µg/mL"},
      {"measurement": "EC50 NR", "setting": "[5]", "value": ">10", "unit": "µg/mL"},
      {"measurement": "IC50 NR", "setting": "[5]", "value": ">10", "unit": "µg/mL"},
      {"measurement": "EC50 Visual", "setting": "[6]", "value": ">10", "unit": "µg/mL"},
      {"measurement": "IC50 Visual", "setting": "[6]; numerator of SI", "value": ">10", "unit": "µg/mL"},
      {"measurement": "EC50 Visual", "setting": "Rhino 2 [7]", "value": ">10", "unit": "µg/mL"},
      {"measurement": "IC50 Visual", "setting": "Rhino 2 [7]; numerator of SI", "value": ">10", "unit": "µg/mL"},
      {"measurement": "EC50 NR", "setting": "Pichinde virus [8]", "value": ">10", "unit": "µg/mL"},
      {"measurement": "IC50 NR", "setting": "Pichinde virus [8]", "value": ">10", "unit": "µg/mL"},
      {"measurement": "EC50 Visual", "setting": "Rhino 9", "value": ">10", "unit": "µg/mL"},
      {"measurement": "IC50 Visual", "setting": "Rhino 9; numerator of SI", "value": ">10", "unit": "µg/mL"},
      {"measurement": "EC50 Visual", "setting": "Vaccinia virus", "value": ">10", "unit": "µg/mL"},
      {"measurement": "IC50 Visual", "setting": "Vaccinia virus; numerator of SI", "value": ">10", "unit": "µg/mL"},
      {"measurement": "EC50 NR", "setting": "[9]", "value": 2, "unit": "µg/mL"},
      {"measurement": "IC50 NR", "setting": "[9]", "value": ">10", "unit": "µg/mL"},
      {"measurement": "EC50 (antiviral activity, OD570)", "setting": "EMCV", "value": 0.0006, "unit": "µg/mL"},
      {"measurement": "EC50 Visual", "setting": "Adenovirus; A549", "value": ">10", "unit": "µg/mL"},
      {"measurement": "IC50 Visual", "setting": "Adenovirus; A549, numerator of SI", "value": ">10", "unit": "µg/mL"},
      {"measurement": "Mx1", "setting": "[10]", "value": 21},
      {"measurement": "OAS", "setting": "[10]", "value": 12},
      {"measurement": "PkR", "setting": "[10]", "value": 8},
      {"measurement": "EC50 NR", "setting": "Rhino 2 [11]", "value": ">10", "unit": "µg/mL"},
      {"measurement": "IC50 NR", "setting": "Rhino 2 [11]", "value": ">10", "unit": "µg/mL"},
      {"measurement": "EC50 Visual", "setting": "Pichinde virus [12]", "value": ">10", "unit": "µg/mL"},
      {"measurement": "IC50 Visual", "setting": "Pichinde virus [12]", "value": ">10", "unit": "µg/mL"}
    ]}
  ]
}
